Experimental findings from ChEMBL document CHEMBL1156423 are described below.

By kcat/Km is commonly meant the turnover number divided by the Michaelis constant.

In the series the test system is O=C(O)P(=O)(O)O. As to conditions: Human immunodeficiency virus 1.

Description: Inhibition of HIV1 reverse transcriptase E89K mutant mediated single strand incorporation into DNA at +16 position using polypurine tract PPT+16/PPT57 template after 7 mins by gel based assay

In the case of “Human immunodeficiency virus type 1 reverse transcriptase (Human immunodeficiency virus 1) (from UniProt Q72547) E89K”, the kcat/Km stood at 6000 M⁻¹ s⁻¹.
